# In patent publication US20090246142:
# B1: catalytic domain of matrix metalloproteinase-7 (MMP-7; Biomol) (protein)
# chain: YSLFPNSPKWTSKVVTYRIVSYTRDLPHITVDRLVSKALNMWGKEIPLHFRKVVWGTADIMIGFARGAHGDSYPFDGPGNTLAHAFAPGTGLGGDAHFDEDERWTDGSSLGINFLYAATHELGHSLGMGHSSDPNAVMYPTYGNGDPQNFKLSQDDIKGIQKLYGKRSNSRKK
# Legend:
# [1] = target: T1, MMP-7 substrate G-K(TAMRA)-G-V-P-L-S-L-T-M-G-C-CONH2 with 20 kDa PEG, on receptor (NeutrAvidin) TSACs (Example 3) (not fully specified)
# T1 chain: GKGVPLSLTMGC
# [2] = target: T2, MMP-2 substrate G-K(TAMRA)-G-P-L-G-V-R-G-C-CONH2 with 20 kDa PEG, on ligand (biotin) TSACs (Example 3) (not fully specified)
# T2 chain: GKGPLGVRGC
# [3] = target: T3, MMP-7-MMP-2 tandem substrate TAMRA-G-K-G-V-P-L-S-L-T-M-Ahx-G-P-L-G-V-R-G-C-CONH2 with 20 kDa PEG, on ligand (biotin) TSACs (Example 3) (not fully specified)
# T3 chain: GKGVPLSLTMGPLGVRGC
protein,measurement,setting,value
B1,TSAC assembly in DLS,[1],"addition of 0.4 µg MMP-7 induces assembly, while 0.4 µg MMP-2 cannot"
same,TSAC assembly in DLS,[2],"Addition of 0.4 µg MMP-2 actuates TSAC assembly, while 0.4 µg MMP-7 or no enzyme is insufficient"
same,hydrodynamic radius increase in DLS,[3],Hydrodynamic radii increased more than 5-fold in the presence of either enzyme or both enzymes
